From PMC7717987, “αIIbβ3 variants in ten families with autosomal dominant macrothrombocytopenia: Expanding the mutational and clinical spectrum” (PLoS ONE, 2020)

Legend:
Conditions in all cases: partners not purified
integrin αIIbβ3 [1] = target: T1, integrin αIIbβ3 (human (endogenous in platelets), UniProt P08514-1 32-1039; P05106-1 27-788); assay: flow cytometry on cells; citrated whole blood of healthy controls stimulated with TRAP-6 (20 μM); platelets gated on FSC/SSC and CD42b; bound fibrinogen detected with FITC anti-bFG (clone 9F9); platelet activation index = (MFI test tube - MFI with EDTA 7 mM) / MFI with EDTA
T1 construct: integrin alpha-IIb (αIIb, GPIIb), human; integrin beta-3 (β3, GPIIIa, CD61), human; The platelets of the heterozygous patients carry wild-type and variant integrin together and are not made molecules; also called glycoprotein (GP) IIb/IIIa receptor complex; GPIIb/IIIa; source: endogenous, on platelets in citrated whole blood of healthy blood donors

integrin αIIbβ3 [2] = target: T1, integrin αIIbβ3; assay: flow cytometry on cells; citrated whole blood of healthy controls stimulated with ADP (10 μM); platelets gated on FSC/SSC and CD42b; bound fibrinogen detected with FITC anti-bFG (clone 9F9); platelet activation index = (MFI test tube - MFI with EDTA 7 mM) / MFI with EDTA
integrin αIIbβ3 [3] = target: T1, integrin αIIbβ3; assay: flow cytometry on cells; citrated whole blood of healthy controls stimulated with TRAP-6 (20 μM); platelets gated on FSC/SSC and CD42b; bound fibrinogen detected with FITC anti-bFG (clone 9F9); platelet activation index = (MFI test tube - MFI with EDTA 7 mM) / MFI with EDTA; remark: listed apart in the source
integrin αIIbβ3 [4] = target: T1, integrin αIIbβ3; assay: flow cytometry on cells; citrated whole blood of healthy controls stimulated with ADP (10 μM); platelets gated on FSC/SSC and CD42b; bound fibrinogen detected with FITC anti-bFG (clone 9F9); platelet activation index = (MFI test tube - MFI with EDTA 7 mM) / MFI with EDTA; remark: listed apart in the source

platelet activation index (PAI) by bound fibrinogen, mean (integrin αIIbβ3 [1]): 15 fold increase in MFI over EDTA
platelet activation index (PAI) by bound fibrinogen, median (integrin αIIbβ3 [1]): 13 fold increase in MFI over EDTA
platelet activation index (PAI) by bound fibrinogen, median (integrin αIIbβ3 [2]): 19 fold increase in MFI over EDTA
platelet activation index (PAI) by bound fibrinogen, median (integrin αIIbβ3 [3]): 16 fold increase in MFI over EDTA
platelet activation index (PAI) by bound fibrinogen, mean (integrin αIIbβ3 [4]): 19 fold increase in MFI over EDTA
platelet activation index (PAI) by bound fibrinogen, median (integrin αIIbβ3 [4]): 17 fold increase in MFI over EDTA
B1: fibrinogen (complex, human (endogenous in whole blood))
chain 1: ADSGEGDFLAEGGGVRGPRVVERHQSACKDSDWPFCSDEDWNYKCPSGCRMKGLIDEVNQDFTNRINKLKNSLFEYQKNNKDSHSLTTNIMEILRGDFSSANNRDNTYNRVSEDLRSRIEVLKRKVIEKVQHIQLLQKNVRAQLVDMKRLEVDIDIKIRSCRGSCSRALAREVDLKDYEDQQKQLEQVIAKDLLPSRDRQHLPLIKMKPVPDLVPGNFKSQLQKVPPEWKALTDMPQMRMELERPGGNEITRGGSTSYGTGSETESPRNPSSAGSWNSGSSGPGSTGNRNPGSSGTGGTATWKPGSSGPGSTGSWNSGSSGTGSTGNQNPGSPRPGSTGTWNPGSSERGSAGHWTSESSVSGSTGQWHSESGSFRPDSPGSGNARPNNPDWGTFEEVSGNVSPGTRREYHTEKLVTSKGDKELRTGKEKVTSGSTTTTRRSCSKTVTKTVIGPDGHKEVTKEVVTSEDGSDCPEAMDLGTLSGIGTLDGFRHRHPDEAAFFDTASTGKTFPGFFSPMLGEFVSETESRGSESGIFTNTKESSSHHPGIAEFPSRGKSSSYSKQFTSSTSYNRGDSTFESKSYKMADEAGSEADHEGTHSTKRGHAKSRPVRGIHTSPLGKPSLSP
chain 2: QGVNDNEEGFFSARGHRPLDKKREEAPSLRPAPPPISGGGYRARPAKAAATQKKVERKAPDAGGCLHADPDLGVLCPTGCQLQEALLQQERPIRNSVDELNNNVEAVSQTSSSSFQYMYLLKDLWQKRQKQVKDNENVVNEYSSELEKHQLYIDETVNSNIPTNLRVLRSILENLRSKIQKLESDVSAQMEYCRTPCTVSCNIPVVSGKECEEIIRKGGETSEMYLIQPDSSVKPYRVYCDMNTENGGWTVIQNRQDGSVDFGRKWDPYKQGFGNVATNTDGKNYCGLPGEYWLGNDKISQLTRMGPTELLIEMEDWKGDKVKAHYGGFTVQNEANKYQISVNKYRGTAGNALMDGASQLMGENRTMTIHNGMFFSTYDRDNDGWLTSDPRKQCSKEDGGGWWYNRCHAANPNGRYYWGGQYTWDMAKHGTDDGVVWMNWKGSWYSMRKMSMKIRPFFPQQ
chain 3: YVATRDNCCILDERFGSYCPTTCGIADFLSTYQTKVDKDLQSLEDILHQVENKTSEVKQLIKAIQLTYNPDESSKPNMIDAATLKSRKMLEEIMKYEASILTHDSSIRYLQEIYNSNNQKIVNLKEKVAQLEAQCQEPCKDTVQIHDITGKDCQDIANKGAKQSGLYFIKPLKANQQFLVYCEIDGSGNGWTVFQKRLDGSVDFKKNWIQYKEGFGHLSPTGTTEFWLGNEKIHLISTQSAIPYALRVELEDWNGRTSTADYAMFKVGPEADKYRLTYAYFAGGDAGDAFDGFDFGDDPSDKFFTSHNGMQFSTWDNDNDKFEGNCAEQDGSGWWMNKCHAGHLNGVYYQGGTYSKASTPNGYDNGIIWATWKTRWYSMKKTTMKIIPFNRLTIGEGQQHHLGGAKQAGDV
notes: fibrinogen alpha chain, human; fibrinogen beta chain, human; fibrinogen gamma chain, human; Plasma fibrinogen of the donor's own blood; no fibrinogen was added; also called FG; soluble FG; source: endogenous, in citrated whole blood of healthy blood donors; copies: + +
